Earlier results on 1 substance are cited in article PMC12489035.

The target of this data set is APP tail cytoplasmic tail (Homo sapiens) (UniProt P05067).
Sequence of APP tail cytoplasmic tail (Homo sapiens) (P05067 724-770): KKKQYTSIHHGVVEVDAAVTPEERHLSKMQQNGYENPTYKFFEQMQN

Sequence of AP-4 mu4 subunit (O00189 whole entry): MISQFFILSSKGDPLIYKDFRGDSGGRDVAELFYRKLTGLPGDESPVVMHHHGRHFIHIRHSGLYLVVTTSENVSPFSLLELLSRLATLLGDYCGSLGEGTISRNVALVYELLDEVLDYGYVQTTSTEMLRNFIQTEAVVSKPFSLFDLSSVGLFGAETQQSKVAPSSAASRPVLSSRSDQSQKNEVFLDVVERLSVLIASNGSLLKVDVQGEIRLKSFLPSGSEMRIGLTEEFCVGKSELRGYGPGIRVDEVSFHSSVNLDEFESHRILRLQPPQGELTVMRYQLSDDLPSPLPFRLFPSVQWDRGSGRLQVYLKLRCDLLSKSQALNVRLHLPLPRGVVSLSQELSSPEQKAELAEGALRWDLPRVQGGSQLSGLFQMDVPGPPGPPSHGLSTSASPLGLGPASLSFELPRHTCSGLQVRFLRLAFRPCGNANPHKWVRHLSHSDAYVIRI

Regarding AP-4 mu4 subunit (from UniProt O00189), the Kd was 27.7 µM.
